Where a chain is given by its changes, count along the chain named. Names and notes keep the numbering of the source.

To fix the notation:
B1: Fv-4-F11 (antibody, human IgG1, kappa)
heavy: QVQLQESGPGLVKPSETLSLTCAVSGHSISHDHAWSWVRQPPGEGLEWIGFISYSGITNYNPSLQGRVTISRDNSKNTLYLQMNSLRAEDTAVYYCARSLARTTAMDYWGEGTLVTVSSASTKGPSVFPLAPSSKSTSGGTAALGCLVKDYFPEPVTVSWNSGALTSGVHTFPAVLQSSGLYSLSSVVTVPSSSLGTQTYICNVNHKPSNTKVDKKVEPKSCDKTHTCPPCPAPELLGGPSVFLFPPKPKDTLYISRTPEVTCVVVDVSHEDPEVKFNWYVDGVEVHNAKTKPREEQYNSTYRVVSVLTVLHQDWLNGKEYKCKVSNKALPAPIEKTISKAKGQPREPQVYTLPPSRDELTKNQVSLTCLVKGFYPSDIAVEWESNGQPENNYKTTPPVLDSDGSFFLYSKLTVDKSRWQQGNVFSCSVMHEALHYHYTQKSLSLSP
light: DIQMTQSPSSLSASVGDSVTITCQASTDISSHLNWYQQKPGKAPELLIYYGSHLLSGVPSRFSGSGSGTDFTFTISSLEAEDAATYYCGQGNRLPYTFGQGTKVEIERTVAAPSVFIFPPSDEQLKSGTASVVCLLNNFYPREAKVQWKVDNALQSGNSQESVTEQDSKDSTYSLSSTLTLSKADYEKHKVYACEVTHQGLSSPVTKSFNRGEC
notes: M252Y/N434Y (EU)
B2: Fv-4-F1081 (antibody, human IgG1, kappa)
heavy: QVQLQESGPGLVKPSETLSLTCAVSGHSISHDHAWSWVRQPPGEGLEWIGFISYSGITNYNPSLQGRVTISRDNSKNTLYLQMNSLRAEDTAVYYCARSLARTTAMDYWGEGTLVTVSSASTKGPSVFPLAPSSKSTSGGTAALGCLVKDYFPEPVTVSWNSGALTSGVHTFPAVLQSSGLYSLSSVVTVPSSSLGTQTYICNVNHKPSNTKVDKKVEPKSCDKTHTCPPCPAPELLGGPSVFLFPPKPKDTLYISRTPEVTCVVVDVSHEDPEVKFNWYVDGVEVHNAKTKPREEQYNSTYRVVSVLTVLHQDWLNGKEYKCKVSNKALPAPIEKTISKAKGQPREPQVYTLPPSRDELTKNQVSLTCLVKGFYPSDIAVEWESNGQPENNYKTTPPVLDSDGSFFLYSKLTVDKSRWQQGNVFSCSVMHEALHYHNTTKSLSLSP
light: B1 light
notes: additional N-glycosylation found (++)
B3: Fv-4-F1078 (antibody, human IgG1, kappa)
heavy: B2 heavy with E382N, E384S, N438Y, T440Q
light: B1 light
B4: Fv-4-F1077 (antibody, human IgG1, kappa)
heavy: B2 heavy with K250N, N438Y, T440Q
light: B1 light
notes: as for B2
B5: Fv-4-F1079 (antibody, human IgG1, kappa)
heavy: B2 heavy with E384N, N386S, N438Y, T440Q
light: B1 light
B6: Fv-4-F1082 (antibody, human IgG1, kappa)
heavy: B2 heavy with N438Y, T440N
light: B1 light
notes: additional N-glycosylation found (+)
B7: Fv-4-F1094 (antibody)
heavy: B2 heavy with N438Y, T440Q, S444N
light: B1 light
B8: Fv-4-F1080 (antibody, human IgG1, kappa)
heavy: B2 heavy with S426N, N438Y, T440Q
light: B1 light
notes: as for B2
B9: Fv-4-F1096 (antibody, human IgG1, kappa)
heavy: B2 heavy with Q388T, N438Y, T440Q
light: B1 light
B10: Fv-4-F1095 (antibody, human IgG1, kappa)
heavy: B2 heavy with S385N, G387S, N438Y, T440Q
light: B1 light
B11: Fv-4-F1097 (antibody, human IgG1, kappa)
heavy: B2 heavy with G387N, P389S, N438Y, T440Q
light: B1 light
B12: Fv-4-F1083 (antibody)
heavy: B2 heavy with N438Y, T440Q, S442N
light: B1 light
B13: Fv-4-F1389 (antibody, human IgG1, kappa)
heavy: B2 heavy with Y254M, M430L, Y436S, N438T, T440Q
light: B1 light
notes: M428L/N434S/Y436T (EU)
B14: Fv-4-F1380 (antibody, human IgG1, kappa)
heavy: B2 heavy with Y254M, S428D, M430L, Y436S, N438Y, T440Q
light: B1 light
B15: Fv-4-F1384 (antibody, human IgG1, kappa)
heavy: B2 heavy with Y254M, S428A, M430L, Y436S, N438Y, T440Q
light: B1 light
B16: Fv-4-F1383 (antibody, human IgG1, kappa)
heavy: B2 heavy with Y254M, S428R, M430L, Y436S, N438Y, T440Q
light: B1 light
B17: Fv-4-F1381 (antibody, human IgG1, kappa)
heavy: B2 heavy with Y254M, S428E, M430L, Y436S, N438Y, T440Q
light: B1 light
B18: Fv-4-F1386 (antibody, human IgG1, kappa)
heavy: B2 heavy with Y254M, S428Y, M430L, Y436S, N438Y, T440Q
light: B1 light
B19: Fv-4-F1388 (antibody, human IgG1, kappa)
heavy: B2 heavy with Y254M, M430L, Y436S, N438F, T440Q
light: B1 light
B20: Fv-4-F1382 (antibody, human IgG1, kappa)
heavy: B2 heavy with Y254M, S428K, M430L, Y436S, N438Y, T440Q
light: B1 light
B21: Fv-4-F1385 (antibody, human IgG1, kappa)
heavy: B2 heavy with Y254M, S428Q, M430L, Y436S, N438Y, T440Q
light: B1 light
B22: F1718 (antibody)
heavy: B2 heavy with Y254M, N438V, T440R, S442E
light: B1 light
notes: S440F as printed
B23: F1724 (antibody)
heavy: B2 heavy with Y254M, H435D, N438V, T440K, S442E
light: B1 light
B24: F1754 (antibody)
heavy: B2 heavy with L237R, S241K, Y254M, H435D, N438T, T440K, S442E
light: B1 light
B25: F1763 (antibody)
heavy: B2 heavy with Y254M, H435D, N438T, T440K, S442D
light: B1 light
B26: F1723 (antibody)
heavy: B2 heavy with Y254M, H435D, N438V, T440R, S442D
light: B1 light
B27: F1749 (antibody)
heavy: B2 heavy with L237R, S241K, Y254M, N438T, T440R, S442D
light: B1 light
B28: F1759 (antibody)
heavy: B2 heavy with Y254M, N438T, T440K, S442D
light: B1 light
B29: F1757 (antibody)
heavy: B2 heavy with Y254M, N438T, T440R, S442D
light: B1 light
B30: F1750 (antibody)
heavy: B2 heavy with L237R, S241K, Y254M, N438T, T440K, S442E
light: B1 light
B31: F1756 (antibody)
heavy: B2 heavy with Y254M, N438T, T440R, S442E
light: B1 light
B32: F1720 (antibody)
heavy: B2 heavy with Y254M, N438V, T440K, S442E
light: B1 light
B33: F1719 (antibody)
heavy: B2 heavy with Y254M, N438V, T440R, S442D
light: B1 light
B34: F1753 (antibody)
heavy: B2 heavy with L237R, S241K, Y254M, H435D, N438T, T440R, S442D
light: B1 light
B35: F1725 (antibody)
heavy: B2 heavy with Y254M, H435D, N438V, T440K, S442D
light: B1 light
B36: F1751 (antibody)
heavy: B2 heavy with L237R, S241K, Y254M, N438T, T440K, S442D
light: B1 light
B37: F1752 (antibody)
heavy: B2 heavy with L237R, S241K, Y254M, H435D, N438T, T440R, S442E
light: B1 light
B38: F1761 (antibody)
heavy: B2 heavy with Y254M, H435D, N438T, T440R, S442D
light: B1 light
B39: F1758 (antibody)
heavy: B2 heavy with Y254M, N438T, T440K, S442E
light: B1 light

In one test the target is T1, soluble human FcRn (human, UniProt P55899 24-297; P61769 21-119).
T1 construct: Heterodimer of alpha chain and beta2-microglobulin; also called hFcRn
T1 sequence (P55899 24-297 limits assumed, chain 1 of 2): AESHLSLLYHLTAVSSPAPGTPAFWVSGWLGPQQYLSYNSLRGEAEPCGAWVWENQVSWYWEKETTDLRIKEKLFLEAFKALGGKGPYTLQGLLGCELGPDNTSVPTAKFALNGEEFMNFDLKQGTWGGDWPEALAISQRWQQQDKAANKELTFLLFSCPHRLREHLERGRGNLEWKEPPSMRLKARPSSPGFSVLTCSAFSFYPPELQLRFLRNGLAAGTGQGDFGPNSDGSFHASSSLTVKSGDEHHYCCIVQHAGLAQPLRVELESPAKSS
T1 sequence (P61769 21-119 limits assumed, chain 2 of 2): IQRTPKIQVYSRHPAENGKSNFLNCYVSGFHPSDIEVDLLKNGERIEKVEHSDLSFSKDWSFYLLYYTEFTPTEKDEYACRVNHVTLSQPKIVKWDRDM
The experiment in a line: SPR (Biacore), pH 7.0. On the technique in general: SPR reads the build-up and loss of mass on a sensor chip optically.
Consider B1, for which the affinity, expressed as Kd, was 330 nM.

Turning to B2, the Kd (commonly the concentration at which binding is half-saturated) was 620 nM.

With B3, the affinity, expressed as Kd, was 470 nM.

B4 displayed a Kd of 2000 nM.

B5 came in with a Kd of 340 nM.

In turn, B6 came in with a dissociation constant Kd of 280 nM.

In turn, B7 had a dissociation constant (Kd) of 260 nM.

In turn, B8 came in with a dissociation constant Kd of 320 nM.

B9 showed a Kd of 270 nM.

With B10, binding was put at a Kd of 290 nM.

As for B11, binding was put at a Kd of 280 nM.

B12 gave a Kd of 350 nM.

Another test addresses T1, soluble human FcRn. The experiment in a line: SPR (Biacore), pH 6.0.
As for B13, the affinity, expressed as Kd, was 68 nM.

In turn, B14 yielded a dissociation constant (Kd) of 73 nM.

The molecule B15 had a Kd of 86 nM.

With B16, the dissociation constant Kd was 160 nM.

For B17, binding was characterised by a dissociation constant (Kd) of 86 nM.

B18 came in with an equilibrium dissociation constant (Kd) of 160 nM.

Turning to B19, the equilibrium dissociation constant (Kd) is 80 nM.

For B20, the affinity, expressed as Kd, was 130 nM.

For the molecule B21, the dissociation constant (Kd) was determined as 77 nM.

The target of another test is T1, soluble human FcRn. Description: SPR (Biacore), pH 6.0. The source holds these as a separate data set.
On to B22, for which the Kd was found to be 61 nM.

B23: the affinity, expressed as Kd, was 99 nM.

B24 came in with a Kd of 120 nM.

In the case of B25, binding was characterised by a dissociation constant (Kd) of 110 nM.

B26 had a Kd of 96 nM.

B27 yielded a Kd of 87 nM.

In turn, B28 registered an equilibrium dissociation constant (Kd) of 63 nM.

For the molecule B29, the Kd worked out at 72 nM.

Molecule B30 registered a Kd of 70 nM.

Regarding B31, binding was characterised by a dissociation constant (Kd) of 80 nM.

As to B32, binding was put at a Kd of 45 nM.

The molecule B33 gave an equilibrium dissociation constant (Kd) of 52 nM.

B34 had a Kd of 130 nM.

Molecule B35 gave a dissociation constant Kd of 93 nM.

With B36, the Kd was 69 nM.

B37 returned an equilibrium dissociation constant (Kd) of 150 nM.

In turn, B38 came in with an equilibrium dissociation constant (Kd) of 130 nM.

The molecule B39 had an equilibrium dissociation constant (Kd) of 70 nM.

Source of the values: patent publication US20140363428A1 (Chugai, published 2014).
